Results on two molecules are retold here after patent publication US20220403048A1, “BINDING MOLECULES TO ARGINASE II [ARG2]” (Cancer Research Technology Limited, priority 2019, published 2022).

One assay concerns the target T1, ARG2 (Homo sapiens, UniProt P78540).
T1 sequence (P78540 23-354): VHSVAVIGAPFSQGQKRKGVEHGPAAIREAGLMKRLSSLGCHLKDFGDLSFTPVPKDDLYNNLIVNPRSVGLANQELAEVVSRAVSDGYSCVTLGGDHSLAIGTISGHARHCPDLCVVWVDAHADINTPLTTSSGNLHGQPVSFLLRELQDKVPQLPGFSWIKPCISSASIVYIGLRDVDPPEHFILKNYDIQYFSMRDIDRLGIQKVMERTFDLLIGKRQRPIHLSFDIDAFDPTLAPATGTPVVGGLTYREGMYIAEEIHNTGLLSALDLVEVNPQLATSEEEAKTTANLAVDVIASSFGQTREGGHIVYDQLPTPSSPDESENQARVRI
The assay can be described thus: T cell proliferation assay (BrdU, 96 hours) with exogenous ARG2, improved variant IgGs. Format: cell-based. The following applies: In Absence of rhARG2; hIgG1; top conc 2 μM; n=2. As for the experimental part:
This assay served to provide evidence of improved functional efficacy for each affinity-matured antibody in comparison to the parent IgG, C0020187 (FIG. 12).
Lead optimisation clones were tested to an endpoint treatment time of 96 hours and the BrdU Cell Proliferation Kit (Roche, France; Cat: 11647229001) was used according to the manufacturer's instructions. R347 was used as the irrelevant control. All clones tested n=2.
Leukocyte cones underwent Ficoll Plaque (GE, Sweden; Cat: 17-1440-02) gradient separation, PBMC's were extracted and pan T cell population isolated by negative selection using the Human T Cell Enrichment Kit (Stemcell Technologies, France; Cat: 19051) according to the manufacturer's instructions.
40000 cells/well were seeded in complete growth media (RMPI 1640, 5% Human Serum Albumin) into a 96 well clear TC treated microplate (Greiner-Bio One, Germany; Cat: 655180). T cells were activated by the addition of ImmunoCult CD3/CD28 (Stemcell Technologies, France; Cat: 10971) at a dilution of 1:40 directly into wells and the plate incubated 37° C., 5% CO2 for 45 minutes.
To determine EC50's of test antibodies, a dilution series was created in sterile TBS/NaCl Buffer at 10× the final assay concentration added to the assay plate containing cells. Plate was incubated for 30 minutes at 37° C., 5% CO2.
ARG2 was added to relevant wells of the plate at a final concentration of 15 μg/ml. The equivalent volume of ARG2 vehicle and test antibody vehicle was added to relevant control wells. The total volume in each well was 200 μl. Cells were treated with test antibodies for a total of 96 hours at 37° C., 5% CO2. Antibodies were tested alongside C0020187 (parent IgG) as a positive control and R347 (irrelevant isotype control antibody) as a negative control.
Assessment of T cell proliferation was performed using the BrdU Cell Proliferation ELISA Kit (Roche, Germany; Cat: 000000011647229001). BrdU labelling reagent was added after 78 hours of antibody treatment and the plate further incubated for 18 hours at 37° C., 5% CO2. The remainder of the assay was performed according to the manufacturer's instructions.
Calculated data was expressed as % of control (Equation 3) and graphical plots were constructed using a four parameter fit and EC50's determined using model 205 in XLFit (IDBS, UK).
All test sample data was corrected for background (mean of no cell control)
% Control=100*((Test Sample−Mean Positive Control)/(Mean Negative Control−Mean Positive Control)) Equation 3:
Mean Positive Control=T Cells in absence of ARG2
Mean Negative Control=T Cells in presence of ARG2
This assay served to provide evidence of improved functional efficacy for each affinity-matured antibody in comparison to the parent IgG, C0020187 (FIG. 14, Table 19). R347 was used as the irrelevant control. All clones tested n=2. Reference section 2.9 for methodology.

For another assay, the system named is cynomolgus ARG2. The experiment in a line: Bio-Layer Interferometry (OctetRED) binding kinetics, cynomolgus ARG2. The conditions noted are these: second-generation Fab; cyno ARG2 ligand; same extended assay. The text has this:
The OctetRED (Pall ForteBio) instrument was used to assess the kinetic parameters of the interactions between C0020187 and recombinantly produced human ARG2, cynomolgus ARG2 and human ARG1. The Octet biosensor uses an optical analytical technique that analyses the interference pattern of white light reflected from two surfaces: a layer of immobilised protein on the sensor tip, and an internal reference layer. Any changes in binding at the biosensor tip result in a shift in interference pattern, which can be measured in real time. Molecules associating with or dissociating from ligands at the biosensor tip shift the interference pattern and generate a response on the Octet system which is recorded by the acquisition software.
Typically, a defined concentration of the analyte species is brought into contact with the coupled ligand and any binding is detected as an increased in signal (association phase). This is followed by a period of buffer rinse, during which dissociation of the analyte species from the surface immobilised ligand can be observed as a decrease in signal (dissociation phase). Repetition of this with a range of analyte concentrations provides data for the analysis of binding kinetics.
An Octet Kinetics Buffer (PBS containing 0.01% BSA and 0.002% Tween20) is typically used as the diluent buffer for the analyte samples and as the flow buffer during the dissociation phase. The experimental data is recorded over time as shift in interference pattern (nm) over time, which is directly proportional to the optical thickness at the biosensor tip, which in turn is an approximate measure of the mass of analyte bound. The proprietary Octet Data Analysis software package can then be used to process data and fit binding models to the data sets. Returned association (ka, M^−1 s^−1) and dissociation (kd, s^−1) rate constants allow calculation of dissociation (KD, M) affinity constants.
The affinity of binding between the Fab of C0020187 and human ARG2, cynomolgus ARG2 and human ARG1 was estimated using assays in which the biotinylated ARG antigen was captured on a streptavidin sensor tip. A fresh sensor tip was used for each measurement and no regeneration was used. A series of dilutions of the C0020187 Fab (3.25-240 nM) were individually placed in contact with the ligand surface for a sufficient amount of time to observe sensorgrams that could be fitted to an appropriate binding model with confidence (typically 5 minutes), followed by an appropriate length of dissociation time (typically 10 minutes). Blank reference (0 nM Fab) data were subtracted from each dataset to reduce the impact of any buffer artefacts or non-specific binding effects. An appropriate binding model was then fitted simultaneously to the data from each analyte titration using the Octet Evaluation software.
Example results for C0020187 are shown in Table 9, showing the association rate constants (ka), dissociation rate constants (kd) and dissociation constants (KD). These parameters were derived from a 1:1 binding fit to the data.
The affinities of the affinity-matured antibodies to human ARG2 were measured on the OctetRED system as described in section 1.15 using the streptavidin capture method. Typically, an analyte titration range of 1.8 to 120 nM was used.
The affinities of some of these antibodies to cynomolgus ARG2 were determined using the same assay, and the derived kinetic parameters are shown in Table 21.
Background: BLI is a label-free optical method that tracks binding on a fibre tip over time.

One may read the EC50 as the concentration needed to bring the measured effect to its halfway point. Read a low EC50 as an effect from little substance.

Chain of cynomolgus ARG2 (as listed by the source): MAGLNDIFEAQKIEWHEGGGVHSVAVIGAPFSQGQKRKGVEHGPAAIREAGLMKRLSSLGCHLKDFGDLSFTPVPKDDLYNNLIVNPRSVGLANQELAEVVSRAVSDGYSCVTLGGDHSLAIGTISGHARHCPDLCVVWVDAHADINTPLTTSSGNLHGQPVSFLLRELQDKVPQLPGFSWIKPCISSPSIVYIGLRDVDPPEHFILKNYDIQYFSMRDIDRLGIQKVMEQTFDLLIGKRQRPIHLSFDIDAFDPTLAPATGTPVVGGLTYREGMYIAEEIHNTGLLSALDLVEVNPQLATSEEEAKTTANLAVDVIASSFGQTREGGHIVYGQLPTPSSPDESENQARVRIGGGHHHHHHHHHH

B1: C0021177: anti-ARG2 antibody, VH SEQ ID NO: 322, VL SEQ ID NO: 327 (antibody, listed as Homo sapiens, V domains shown)
VH: EVQLLESGGGLVQPGGSLRLSCAASGFTFRYEVAAWVRQAPGKGLEWVSAISGPAPKGYYADSVKGRFTISRDNSKNTLYLQMNSLRAEDTAVYYCARLRADLGLYMDLWGRGTLVTVSS
VL: QSELTQPPTASAAPGQKVTISCSGSSSNIGNHYVSWYQQLPGTAPKLLIYDTTVLSSGIPDRFSGSKSGTSATLGITGLQTGDEADYYCGTWDELTSNLVFGGGTKLTVL
modifications: C0021177
On to B1, for which, in the assay with ARG2, the EC50 was under 0.9 nM and the “Maximum % Proliferation” value amounted to 90%. Also, in the assay with cynomolgus ARG2, the ka is 414000 M⁻¹ s⁻¹ and the kd came to 3.12e-05 s⁻¹.

B2: C0021180: anti-ARG2 antibody, VH SEQ ID NO: 332, VL SEQ ID NO: 337 (antibody, listed as Homo sapiens, V domains shown)
VH: EVQLLESGGGLVQPGGSLRLSCAASGFTFRYEVAAWVRQAPGKGLEWVSAISGPIPKGYYADSVKGRFTISRDNSKNTLYLQMNSLRAEDTAVYYCARLRADLGLYMDLWGRGTLVTVSS
VL: QSVLTQPPTVSAAPGRKVTISCSGSSSNIGDHHVSWYQQLPGAAPKLLIYDTDHMASGIPDRFSGSRSGTSATLGITGLQTGDEADYYCGTWDSSLSALVFGGGTKLTVL
modifications: C0021180
Turning to B2, in the assay with ARG2, the EC50 is under 0.9 nM and the “Maximum % Proliferation” value came out at 96%. In the assay on cynomolgus ARG2, this molecule yielded a ka of 381000 M⁻¹ s⁻¹ and a kd of 0.000135 s⁻¹.
